This passage reports fold increase of fluorescence emission upon receptor binding results from paper PMC10823590.

The assay has as its target ST2 receptor (isolated protein used in ELISA and in the fluorescence emission assay) (UniProt Q01638). The assay is described as follows: fluorescence emission before and after incubation with the receptor; IL-33 analogues at 50 ug/mL, fluorescence emission measured before and after incubation with ST2 at 200 ug/mL, n = 3.

In turn, “IL-33(6) (from UniProt O95760 1-270) (ligand)” showed a fold increase of fluorescence emission upon receptor binding of 4 fold.
